Reference: patent US6329339A, “Pharmaceutical antiviral composition comprising glycyrrhizic acid and at least one protein endowed with antiviral activity” (priority 1997, dated 2001)

B1: turkey lysozyme: turkey lysozyme (protein, UniProt P00703 19-147, looked up)
Lysozyme C: KVYGRCELAAAMKRLGLDNYRGYSLGNWVCAAKFESNFNTHATNRNTDGSTDYGILQINSRWWCNDGRTPGSKNLCNIPCSALLSSDITASVNCAKKIASGGNGMNAWVAWRNRCKGTDVHAWIRGCRL
B2: human lysozyme: human lysozyme (protein, UniProt P61626 19-148, looked up)
Lysozyme C: KVFERCELARTLKRLGMDGYRGISLANWMCLAKWESGYNTRATNYNAGDRSTDYGIFQINSRYWCNDGKTPGAVNACHLSCSALLQDNIADAVACAKRVVRDPQGIRAWVAWRNRCQNRDVRQYVQGCGV
B3: Bovine lactoferrin: bovine lactoferrin; lactoferrin supplied by SIGMA (protein, UniProt P24627 20-708, looked up)
Lactotransferrin: APRKNVRWCTISQPEWFKCRRWQWRMKKLGAPSITCVRRAFALECIRAIAEKKADAVTLDGGMVFEAGRDPYKLRPVAAEIYGTKESPQTHYYAVAVVKKGSNFQLDQLQGRKSCHTGLGRSAGWIIPMGILRPYLSWTESLEPLQGAVAKFFSASCVPCIDRQAYPNLCQLCKGEGENQCACSSREPYFGYSGAFKCLQDGAGDVAFVKETTVFENLPEKADRDQYELLCLNNSRAPVDAFKECHLAQVPSHAVVARSVDGKEDLIWKLLSKAQEKFGKNKSRSFQLFGSPPGQRDLLFKDSALGFLRIPSKVDSALYLGSRYLTTLKNLRETAEEVKARYTRVVWCAVGPEEQKKCQQWSQQSGQNVTCATASTTDDCIVLVLKGEADALNLDGGYIYTAGKCGLVPVLAENRKSSKHSSLDCVLRPTEGYLAVAVVKKANEGLTWNSLKDKKSCHTAVDRTAGWNIPMGLIVNQTGSCAFDEFFSQSCAPGADPKSRLCALCAGDDQGLDKCVPNSKEKYYGYTGAFRCLAEDVGDVAFVKNDTVWENTNGESTADWAKNLNREDFRLLCLDGTRKPVTEAQSCHLAVAPNHAVVSRSDRAAHVKQVLLHQQALFGKNGKNCPDKFCLFKSETKNLLFNDNTECLAKLGGRPTYEEYLGTEYVTAIANLKKCSTSPLLEACAFLTR
B4: Human lactoferrin: human lactoferrin; lactoferrin supplied by SIGMA (protein, UniProt P02788 20-710, looked up)
Lactotransferrin: GRRRSVQWCAVSQPEATKCFQWQRNMRKVRGPPVSCIKRDSPIQCIQAIAENRADAVTLDGGFIYEAGLAPYKLRPVAAEVYGTERQPRTHYYAVAVVKKGGSFQLNELQGLKSCHTGLRRTAGWNVPIGTLRPFLNWTGPPEPIEAAVARFFSASCVPGADKGQFPNLCRLCAGTGENKCAFSSQEPYFSYSGAFKCLRDGAGDVAFIRESTVFEDLSDEAERDEYELLCPDNTRKPVDKFKDCHLARVPSHAVVARSVNGKEDAIWNLLRQAQEKFGKDKSPKFQLFGSPSGQKDLLFKDSAIGFSRVPPRIDSGLYLGSGYFTAIQNLRKSEEEVAARRARVVWCAVGEQELRKCNQWSGLSEGSVTCSSASTTEDCIALVLKGEADAMSLDGGYVYTAGKCGLVPVLAENYKSQQSSDPDPNCVDRPVEGYLAVAVVRRSDTSLTWNSVKGKKSCHTAVDRTAGWNIPMGLLFNQTGSCKFDEYFSQSCAPGSDPRSNLCALCIGDEQGENKCVPNSNERYYGYTGAFRCLAENAGDVAFVKDVTVLQNTDGNNNEAWAKDLKLADFALLCLDGKRKPVTEARSCHLAMAPNHAVVSRMDKVERLKQVLLHQQAKFGRNGSDCPDKFCLFQSETKNLLFNDNTECLARLHGKTTYEKYLGPQYVAGITNLKKCSTSPLLEACEFLRK

Experiments:
[1] = system: HSV1; experiment: Inhibition of HSV1 viral plaques on VERO cells; type: cell-based, Herpes Simplex Virus type 1; settings: for Inhibition (%) of viral plaques with various lysozymes: percentage of the control ± standard deviation; for MDI50 (dose inhibiting 50% of the viral plaques on VERO cells): HSV1
[2] = system: HSV1; settings: Current Microbiology 1984; cited from earlier work
[3] = system: VERO cells; experiment: Toxicity expressed as a minimum toxic dose on 50% of the cells; type: cell-based, African green monkey
Method: It was carried out as Example 1 except that different amounts of bovine and human lactoferrin were added to the single layers of VERO cells infected with HSV1.
*Toxicity expressed as a minimum toxic dose on 50% of the cells.

Molecule | Inhibition (%) of viral plaques with various lysozymes ([1]; 0.5 mg/ml) | Inhibition (%) of viral plaques with various lysozymes ([1]; 1 mg/ml) | Inhibition (%) of viral plaques with various lysozymes ([1]; 2 mg/ml) | Inhibition (%) of viral plaques with various lysozymes ([1]; 4 mg/ml) | Inhibition (%) of viral plaques with various lysozymes ([1]; 6 mg/ml) | Inhibition (%) of viral plaques with various lysozymes ([1]; 8 mg/ml) | antiviral / anti-herpetic (HSV1) activity of lysozymes [2] | MDI50 (dose inhibiting 50% of the viral plaques on VERO cells) [1] | MTD50 (minimum toxic dose on 50% of the cells) [3]
B1 | 10 ± 3% | 45 ± 5% | 55 ± 6% | 68 ± 5% | 80 ± 4% | 89 ± 5% | anti-herpetic (HSV1) activity | – | –
B2 | 18 ± 3% | 45 ± 3% | 59 ± 4% | 70 ± 4% | 79 ± 6% | 90 ± 5% | anti-herpetic (HSV1) activity | – | –
B3 | – | – | – | – | – | – | – | 0.25 mg/mL | 2 mg/mL
B4 | – | – | – | – | – | – | – | 0.25 mg/mL | 3 mg/mL
